Positions count from the first letter of the chain named. Each block holds one binder with its values, some of them ahead of it.
Experiments:
[1] = target: T1, huCD4-HIS (human, UniProt P01730 26-390, limits assumed); assay: ELISA binning; competitor ibalizumab; 100 ng/mL huCD4-HIS, anti-HIS HRP; background 45, max binding 3000000
T1 construct: the ELISA is not described in the text of this stretch; also called human CD4-HIS

[2] = target: T2, human CD4 on cells (SKW3 cells; human PBMCs) (human, UniProt P01730 26-458); assay: FACS confirmation, supernatant on human PBMCs;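 note: flow cytometry with hybridoma supernatants incubated on human PBMCs for 30 min at 4 °C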
T2 construct: whole, on cells; SKW3 CD4 knockout cells served as the negative cell line in the primary screen; also called hCD4; huCD4

[3] = target: T2, human CD4 on cells (SKW3 cells; human …); assay: FACS binning on SKW3 cells; competitor OKT4a; background 5000, max binding 35000
[4] = target: T2, human CD4 on cells (SKW3 cells; human …); assay: FACS primary screen, hybridoma supernatant, SKW3 vs SKW3 CD4 KO cells;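 note: flow cytometry on mixed SKW3 and dye-labeled SKW3 CD4 knockout cells after 30 min at 4 °C with supernatant, ratio of binding signal on parental versus knockout cells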
[5] = target: T2, human CD4 on cells (SKW3 cells; human …); assay: FACS binning on SKW3 cells; competitor OKT4-A488; background 2163, max binding 8200
[6] = target: T2, human CD4 on cells (SKW3 cells; human …); assay: FACS confirmation, supernatant on SKW3 cells; background gMFI 2500
[7] = target: T2, human CD4 on cells (SKW3 cells; human …); assay: FACS confirmation, supernatant on SKW3 cells; background gMFI 3300
[8] = target: T2, human CD4 on cells (SKW3 cells; human …); assay: FACS binning on SKW3 cells; competitor RPA-T4-PE-Dazzle 594; background 783, max binding 15000

B2: 75110_07N04A (antibody, V domains shown)
VH: QVQLQESGPGLVKPSETLSLTCSVSGVSSTSFYWSWIRQPAGKGLDWIGRIYTSGSTNYNPSLKSRVTMSVDTSKNQFSLKLSSVTAADTAVYYCARDPGYSDAFAIWGQGTMVTVSS
VL: not shown
notes: Tested as non-clonal AlivaMab Mouse Kappa hybridoma supernatant (detected with anti-mouse Fc gamma and anti-human kappa)
- Ibalizumab ELISA binning signal [1]: 1.66e+06
- PBMCs CD4+ gate RL1 binding, anti-mFc 647 [2]: 344000
- PBMCs CD4+ percent bound of viable [2]: 30%
- OKT4a signal (anti-hu A647) with supernatant [3]: 36100
- SKW3 WT vs KO ratio, anti-hKappa-FITC [4]: 2.8
- SKW3 WT vs KO ratio, anti-mFc-647 [4]: 7.8
- OKT4-A488 signal with supernatant [5]: 9010
- gMFI on SKW3 WT, anti-hu Kappa FITC [6]: 6230 gMFI
- gMFI on SKW3 WT, anti-mFc 647 [7]: 30400 gMFI
- RPA-T4-PE-Dazzle 594 signal with supernatant [8]: 15500

B4: 75110_10O16A (antibody, V domains shown)
VH: EVQLVESGGGLVQPGGSLRLSCAASGFTFSNSDMHWVRQATGKGLEWVSTIGTAGDTYYPGSVKGRFTISRENAKNSLYLQMNSLRAGDTAVYYCARGGLYYYGMDVWGQGTTVTVSS
VL: ENVLTQSPGTLSLSPGERATLSCRASQSVSSSYLAWYQQKPGQAPRLLIYGASSRATGIPDRFSGSGSGTDFTLTISRLEPEDFAVYYCHQFGSSPFTFGPGTKVDIK
notes: Tested as non-clonal AlivaMab Mouse Kappa hybridoma supernatant (detected with anti-mouse Fc gamma and anti-human kappa); also called 75110_10016A
- Ibalizumab ELISA binning signal [1]: 2.37e+06
- PBMCs CD4+ gate RL1 binding, anti-mFc 647 [2]: 72100
- PBMCs CD4+ percent bound of viable [2]: 23%
- OKT4a signal (anti-hu A647) with supernatant [3]: 34800
- SKW3 WT vs KO ratio, anti-hKappa-FITC [4]: 1.3
- SKW3 WT vs KO ratio, anti-mFc-647 [4]: 2.4
- OKT4-A488 signal with supernatant [5]: 8260
- gMFI on SKW3 WT, anti-hu Kappa FITC [6]: 3160 gMFI
- gMFI on SKW3 WT, anti-mFc 647 [7]: 5460 gMFI
- RPA-T4-PE-Dazzle 594 signal with supernatant [8]: 15300

B6: 75110_01E08A (antibody, V domains shown)
VH: B4 VH with S30N, S32Y, G61A, S70Y, L100D
VL: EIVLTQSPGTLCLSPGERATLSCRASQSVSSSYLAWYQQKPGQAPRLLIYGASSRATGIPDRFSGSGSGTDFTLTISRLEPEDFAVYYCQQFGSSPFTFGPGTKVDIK
notes: as for B2
- Ibalizumab ELISA binning signal [1]: 1.84e+06
- PBMCs CD4+ gate RL1 binding, anti-mFc 647 [2]: 302000
- PBMCs CD4+ percent bound of viable [2]: 29%
- OKT4a signal (anti-hu A647) with supernatant [3]: 43300
- SKW3 WT vs KO ratio, anti-hKappa-FITC [4]: 2.2
- SKW3 WT vs KO ratio, anti-mFc-647 [4]: 5.9
- OKT4-A488 signal with supernatant [5]: 3330
- gMFI on SKW3 WT, anti-hu Kappa FITC [6]: 6340 gMFI
- gMFI on SKW3 WT, anti-mFc 647 [7]: 22900 gMFI
- RPA-T4-PE-Dazzle 594 signal with supernatant [8]: 14400

Second part, led by results:

- Ibalizumab ELISA binning signal [1]: 1.21e+06
- PBMCs CD4+ gate RL1 binding, anti-mFc 647 [2]: 142000
- OKT4a signal (anti-hu A647) with supernatant [3]: 41800
- SKW3 WT vs KO ratio, anti-hKappa-FITC [4]: 1.1
- SKW3 WT vs KO ratio, anti-mFc-647 [4]: 2.2
- OKT4-A488 signal with supernatant [5]: 8720
- gMFI on SKW3 WT, anti-hu Kappa FITC [6]: 3410 gMFI
- gMFI on SKW3 WT, anti-mFc 647 [7]: 8910 gMFI
- RPA-T4-PE-Dazzle 594 signal with supernatant [8]: 10100
B1: 75110_14G10A (antibody, V domains shown)
VH: EVQLVESGGGLVKPGGSLRLSCAASGFTFSSYSMNWVRQAPGKGLEWVSFISSSSSYIYYADSVKGRFTISRDNAKNSLYLQMNSLRAEDTAVYYCARERGDDYGDYEGAFDIWGQGTMVTVSS
VL: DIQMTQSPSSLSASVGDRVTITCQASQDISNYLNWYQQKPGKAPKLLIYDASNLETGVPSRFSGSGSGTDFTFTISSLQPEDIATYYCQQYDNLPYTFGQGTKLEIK
notes: as for B2
- PBMCs CD4+ percent bound of viable [2]: 32%

- Ibalizumab ELISA binning signal [1]: 2.2e+06
- PBMCs CD4+ gate RL1 binding, anti-mFc 647 [2]: 292000
- OKT4a signal (anti-hu A647) with supernatant [3]: 38400
- SKW3 WT vs KO ratio, anti-hKappa-FITC [4]: 2.2
- SKW3 WT vs KO ratio, anti-mFc-647 [4]: 6.7
- OKT4-A488 signal with supernatant [5]: 9100
- gMFI on SKW3 WT, anti-hu Kappa FITC [6]: 5580 gMFI
- gMFI on SKW3 WT, anti-mFc 647 [7]: 20300 gMFI
- RPA-T4-PE-Dazzle 594 signal with supernatant [8]: 16400
B3: 75110_14P08A (antibody, V domains shown)
VH: QVQLQESGPGLVKSSETLSLTCTDSGDSIRSYYWNWIRQPAGKGLEWIGRIYASGSTNYNPSLKSRVIMSADTSKNRFSLKLSSVTAADTAVYYCARDGGVGDSLDYWGQGTLVTVSS
VL: DIVMTQTPLSLPVTPGEPASISCRSSQSLLDSDDGNTYLDWYLQKPGQSPQLLIYTLSYRASGVPDRFSGSGSGTDFTLKISRVEAEDVGVYYCMQRIEFPFTFGPGTKVDIK
notes: as for B2
- PBMCs CD4+ percent bound of viable [2]: 30%

- Ibalizumab ELISA binning signal [1]: 1.98e+06
- PBMCs CD4+ gate RL1 binding, anti-mFc 647 [2]: 276000
- OKT4a signal (anti-hu A647) with supernatant [3]: 39200
- SKW3 WT vs KO ratio, anti-hKappa-FITC [4]: 1.7
- SKW3 WT vs KO ratio, anti-mFc-647 [4]: 4.7
- OKT4-A488 signal with supernatant [5]: 8660
- gMFI on SKW3 WT, anti-hu Kappa FITC [6]: 5300 gMFI
- gMFI on SKW3 WT, anti-mFc 647 [7]: 16600 gMFI
- RPA-T4-PE-Dazzle 594 signal with supernatant [8]: 16000
B5: 75110_08K12A (antibody, V domains shown)
VH: B4 VH with N31S, S32Y, K75E, V92L, G99D, L100Y
VL: B4 VL with N2I, S32T, S54N, H90Q, S94T
notes: as for B2
- PBMCs CD4+ percent bound of viable [2]: 29%
